# Patent publication US20200308267A1 (Boehringer Ingelheim, published 2020)
# Positions count from the first letter of the chain named.
# B1: VEGFBII010 (VHH, not shown: small tags and cut ends)
# chain: EVQLVESGGGLVQTGDSLRLSCEVSGRTFSSYSMGWFRQAQGKEREFVVAISKGGYKYDSVSLEGRFTISKDNAKNTVYLQINSLKPEDTAVYYCASSRAYGSSRLRLADTYEYWGQGTQVTVSSGGGGSGGGGSGGGGSGGGGSGGGGSGGGGSGGGGSEVQLVESGGGLVQTGDSLRLSCEVSGRTFSSYSMGWFRQAQGKEREFVVAISKGGYKYDSVSLEGRFTISKDNAKNTVYLQINSLKPEDTAVYYCASSRAYGSSRLRLADTYEYWGQGTQVTVSS
# B2: VEGFBII021 (VHH, not shown: small tags and cut ends)
# chain: EVQLVESGGGLVQTGDSLRLSCEVSGRTFSSYSMGWFRQAQGKEREFVVAISKGGYKYDSVSLEGRFTISKDNAKNTVYLQINSLKPEDTAVYYCASSRAYGSSRLRLADTYEYWGQGTQVTVSSGGGGSGGGGSGGGGSGGGGSGGGGSGGGGSGGGGSGGGGSEVQLVESGGGLVQPGGSLRLSCVASGIRFMSMAWYRQAPGKHRELVARISSGGTTAYVDSVKGRFTISRDNSKNTVYLQMNSLKAEDTAVYYCNTFSSRPNPWGAGTQVTVSS
# B3: VEGFBII42D05 (VHH, not shown: small tags and cut ends)
# VHH: EVQLVESGGGLVQPGDSLKLSCAFSGRTFSSYSMGWFRQAQGKEREFVVAISSSGGYIYDSVSLEGRFTISRDNTKNTVYLQTPSLKPEDTAVYYCAASRAYGSSRLRLADTYDYWGQGTQVTVSS
# B4: VEGFBII62D10 (VHH, not shown: small tags and cut ends)
# VHH: B3 VHH with G8E, P14A, K19R, F24A, G56N, I58K, T83I, P84N, A110G
# B5: VEGFBII62A09 (VHH, not shown: small tags and cut ends)
# VHH: B3 VHH with G10D, F24A
# B6: VEGFBII22B06 (VHH, not shown: small tags and cut ends)
# VHH: B3 VHH with F24A
# B7: VEGFBII22A10 (VHH, not shown: small tags and cut ends)
# VHH: B3 VHH with V93D
# B8: VEGFBII30E07 (VHH, not shown: small tags and cut ends)
# VHH: B3 VHH with P14A, K19R, F24A, G56N, I58K, T83I, P84N, A110G, Q121R
# B9: VEGFBII23A09 (VHH, not shown: small tags and cut ends)
# VHH: B3 VHH with S30G, T75S, A110P
# B10: VEGFBII60A09 (VHH, not shown: small tags and cut ends)
# VHH: B3 VHH with K76R, V93D
# B11: VEGFBII23F05 (VHH, not shown: small tags and cut ends)
# VHH: B3 VHH with P14A, K19R, F24A, G56N, I58K, T83I, P84N, E89K, A110G
# B12: VEGFBII31C07 (VHH, not shown: small tags and cut ends)
# VHH: B3 VHH with P14T, K19R, F24A, R27G, V93D
# B13: VEGFBII39E02 (VHH, not shown: small tags and cut ends)
# VHH: B3 VHH with S17P, V93D
# B14: VEGFBII22B07 (VHH, not shown: small tags and cut ends)
# VHH: B3 VHH with P14A, K19R, F24A, G56N, I58K, T83I, P84N, A110G
# B15: VEGFBII23F11 (VHH, not shown: small tags and cut ends)
# VHH: B3 VHH with S54G, V93D
# B16: VEGFBII40G07 (VHH, not shown: small tags and cut ends)
# VHH: B3 VHH with T78A, V93D
# B17: VEGFBII39G04 (VHH, not shown: small tags and cut ends)
# VHH: B3 VHH with Q3P, P14A, K19R, F24A, G56N, I58K, V62A, T83I, P84N, A110G
# B18: VEGFBII56E11 (VHH, not shown: small tags and cut ends)
# VHH: B3 VHH with T91A, V93D
# B19: VEGFBII23G03 (VHH, not shown: small tags and cut ends)
# VHH: B3 VHH with S30G, T75S, A110P, D111G
# B20: VEGFBII42A05 (VHH, not shown: small tags and cut ends)
# VHH: B3 VHH with T83M, V93D
# B21: VEGFBII40H10 (VHH, not shown: small tags and cut ends)
# VHH: B3 VHH with V5M, V93D
# B22: VEGFBII23A03 (VHH, not shown: small tags and cut ends)
# VHH: EVQLVESGGGLVQPGDSLKLSCVASGRTFSSYSMGWFRQAQGKEREFVVAISSGGYIYDSVSLQGRFTISRDNTKNTVYLQTPSLKPEDTAVYYCAASRAYGSSRLRLADTYDYWGQGTQVTVSS
# B23: VEGFBII22E04 (VHH, not shown: small tags and cut ends)
# VHH: B22 VHH with F29S, Y56S, G102A
# B24: VEGFBII22A11 (VHH, not shown: small tags and cut ends)
# VHH: B22 VHH with V23A, A24F, G35A, Y56F, S60A, Q64E
# B25: VEGFBII62F02 (VHH, not shown: small tags and cut ends)
# VHH: B22 VHH with V23A, A24F, S52A, S60A, Q64E, N76D
# B26: VEGFBII27G07 (VHH, not shown: small tags and cut ends)
# VHH: B22 VHH with F29S, K43Q
# B27: VEGFBII40F02 (VHH, not shown: small tags and cut ends)
# VHH: B22 VHH with V23A, A24F, G35A, Y56F, S60A, Q64E, D89G
# B28: VEGFBII23D11 (VHH, not shown: small tags and cut ends)
# VHH: B22 VHH with K19R, V23A, A24F, G35A, Y56F, S60A, Q64E
# B29: VEGFBII27D08 (VHH, not shown: small tags and cut ends)
# VHH: B22 VHH with P14T, K19R, V23A, I57K, Q64E, K75Q, T82I, P83N, S104G
# B30: VEGFBII23E05 (VHH, not shown: small tags and cut ends)
# VHH: B22 VHH with G8E, F29S
# B31: VEGFBII41B05 (VHH, not shown: small tags and cut ends)
# VHH: B22 VHH with D16G, K19R, V23A, A24F, Y56F, S60A, Q64E
# B32: VEGFBII61A01 (VHH, not shown: small tags and cut ends)
# VHH: B22 VHH with P14A, D16G, K19R, V23A, A24F, I57K, S60A, Q64E, G102A
# B33: VEGFBII41G03 (VHH, not shown: small tags and cut ends)
# VHH: B22 VHH with V23A, A24F, G35A, Y56F, S60A, Q64E, D72E
# B34: VEGFBII30C09 (VHH, not shown: small tags and cut ends)
# VHH: B22 VHH with V23I, F29S, K43Q
# B35: VEGFBII23A08 (VHH, not shown: small tags and cut ends)
# VHH: B22 VHH with P14T, K19R, S53N, I57K, Q64E, T82I, P83N
# B36: VEGFBII42F11 (VHH, not shown: small tags and cut ends)
# VHH: B22 VHH with F29S, M34V
# Biological target: VEGF
# Experiment: cell-based or functional assay
# Chain of VEGF (P15692 whole entry): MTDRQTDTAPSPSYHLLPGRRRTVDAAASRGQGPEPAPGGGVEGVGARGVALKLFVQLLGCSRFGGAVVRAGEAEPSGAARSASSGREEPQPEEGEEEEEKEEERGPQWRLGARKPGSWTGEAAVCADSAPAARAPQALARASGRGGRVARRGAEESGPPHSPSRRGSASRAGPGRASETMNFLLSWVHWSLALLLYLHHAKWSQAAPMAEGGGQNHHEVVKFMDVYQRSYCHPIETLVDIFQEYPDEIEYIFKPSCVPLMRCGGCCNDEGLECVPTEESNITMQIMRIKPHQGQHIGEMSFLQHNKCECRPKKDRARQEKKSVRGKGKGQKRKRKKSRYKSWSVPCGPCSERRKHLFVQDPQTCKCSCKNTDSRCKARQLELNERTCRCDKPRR
"HUVEC Erk phosphorylation, % inhibition [%]","HUVEC Erk phosphorylation, IC50 [nM]",Binder
92,0.19,B1
103,0.21,B2

# Biological target: T1, recombinant human VEGF165 (human, UniProt P15692-4 27-191, biotinylated (Sulfo-NHS-LC-Biotin) in the competition assays)
# T1 construct: also called hVEGF165; rhVEGF165
# Experiment: Biacore, periplasmic extract, VEGF165 chip, two phase decay fit
# Set-up: unit not given here
# Description: Dissociation rates of inhibitory VHHs are analyzed on Biacore (Biacore T100 instrument, GE Healthcare). HBS-EP+ buffer is used as running buffer and experiments are performed at 25° C. […] After immobilization, surfaces are deactivated with 10 min injection of 1 M ethanolamine pH8.5. A reference surface is activated and deactivated with respectively EDC/NHS and ethanolamine. Periplasmic extracts of VHHs are injected at a 10-fold dilution in running buffer for 2 min at 45 μl/min and allowed to dissociate for 10 or 15 min. Between different samples, the surfaces are regenerated with regeneration buffer. Data are double referenced by subtraction of the curves on the reference channel and of a blank running buffer injection. […] is evaluated by fitting a two phase decay model in the Biacore T100 Evaluation software v2.0.1.
# T1 sequence (P15692 other isoform, or with tags, fused parts or gaps limits assumed): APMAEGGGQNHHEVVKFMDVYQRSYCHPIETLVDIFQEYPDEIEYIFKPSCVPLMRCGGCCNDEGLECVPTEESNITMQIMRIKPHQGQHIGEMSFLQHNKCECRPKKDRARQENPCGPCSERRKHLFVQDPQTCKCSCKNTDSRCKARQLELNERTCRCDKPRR
kd(fast),kd(slow),Binder
0.033,0.00015,B3
0.019,0.00016,B4
0.041,0.00011,B5
0.038,9e-05,B6
0.037,4e-05,B7
0.017,0.00013,B8
0.027,4.6e-05,B9
0.037,9.3e-05,B10
0.016,0.00013,B11
0.037,0.00015,B12
0.019,0.00024,B13
0.015,7.8e-05,B14
0.027,0.00013,B15
0.018,0.00032,B16
0.014,0.00074,B17
0.033,0.00014,B18
0.028,8.6e-05,B19

kd(fast),kd(slow),Binder
0.016,0.00034,B20
0.014,0.00029,B21
0.015,3.2e-05,B22
0.018,0.00011,B23
0.022,4.7e-05,B24
0.014,8.5e-05,B25
0.013,3.8e-05,B26
0.012,9.8e-05,B27
0.019,5.8e-05,B28
0.024,8.1e-05,B29
0.015,6.9e-05,B30
0.019,0.00012,B31
0.0074,0.00017,B32
0.012,0.00027,B33
0.015,7.6e-05,B34
0.013,5e-05,B35
0.0091,0.0005,B36

# Biological target: VEGF
# Experiment: cell-based or functional assay
# Remark: another data set of the same source
"HUVEC proliferation, % inhibition [%]","HUVEC proliferation, IC50 [nM]",Binder
95,0.22,B1
98,0.4,B2
